In the series the target is His221 (UniProt position 221, RKPFYHAFSFM). The experiment in a line: electrophysiology. The note with it: Symmetrical high K+. Bath: standard solution with Na+ replaced equimolarly by K+ (140 mM extracellular K+). Pipette: 140 mM KCl.; 10 mM Hepes/Tris; MES for pH 5.0-6.5, AMPSO for pH 8.5-9.0, CAPS for pH 9.5-11.0; pHo gating in high symmetrical K+ (needed to restore currents of the double mutant).

The results in this text go back to article PMC3026807.

As for “TASK-3 (K2P9.1, KCNK9) H98N/V221H double mutant (Cavia porcellus; H98N;V221H)”, the pKa (in general, the pH at which an ionisable group is half protonated) is given as 6.86±0.11.
